Assay results as given in patent publication US10426815B2, “Prevention and treatment of itch with an MRGPR antagonist” (THE GENERAL HOSPITAL CORPORATION, priority 2015, dated 2019).
Entries after “also recorded” stand apart in the source; their conditions may differ.

Key:
Format in all cases: cell-based
[1] = biological target: T1, MrgX4 (human MRGPRX4) (Homo sapiens, UniProt Q96LA9); experiment: Calcium imaging of cells transfected with the GPCR (Table 1); conditions: SP 10 μM (FIG. 9)
T1 construct: expressed in transfected cells; host or cells: HeLa cells, pcDNA3.1(-)
T1 sequence (Q96LA9 whole entry): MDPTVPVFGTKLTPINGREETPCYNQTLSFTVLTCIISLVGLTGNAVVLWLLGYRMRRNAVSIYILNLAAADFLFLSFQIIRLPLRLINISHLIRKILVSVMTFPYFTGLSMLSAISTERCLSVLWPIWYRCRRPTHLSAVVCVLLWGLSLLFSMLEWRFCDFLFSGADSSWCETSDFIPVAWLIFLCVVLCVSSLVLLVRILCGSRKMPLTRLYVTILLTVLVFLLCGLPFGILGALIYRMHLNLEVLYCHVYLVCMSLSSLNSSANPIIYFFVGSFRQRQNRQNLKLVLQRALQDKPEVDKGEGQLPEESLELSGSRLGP
Description: (§1) Human NK1 cDNA was obtained from LIFE Technologies, PCR cloned with Xho I-Hind III ends and cloned into pcDNA3.1(−). Mouse NK2 and NK3 expression-ready vectors were obtained from […] (Piscataway, N.J.). All other Mrgprs (human MRGPRX1, human MRGPRX2, human MRGPRX3, human MRGPRX4, mouse MrgprA2a, mouse MrgprA2b, mouse MrgprA3, mouse MrgprA4, mouse MrgprA9, mouse MrgprA10, mouse MrgprB4 and mouse MrgprB5) were cloned by PCR from genomic DNAs and inserted into pcDNA3.1 (−).
(§2) 10 μg of expression vector (human MRGPRX2, mouse MrgprA1 or NK1) and 10 μl of LIPOFECTAMINE 2000 transfection reagent were diluted into 0.5 ml of DMEM and separately left at room temperature (RT) for 5 min. They were then mixed and incubated at RT for 20 minutes prior to being added to HeLa cells. HeLa cells were grown to confluence, trypsinized and 1×10^6 cells were pelleted in a 15 ml tube by centrifugation at 1000 rpm for 5 minutes. […]
(§3) Calcium imaging was performed immediately after loading cells with Fura-2, using a ZEISS Axiovert 200M microscope platform equipped with a flipping filter wheel for ratiometric imaging. […] The software later analyzed all images taken during each excitation period. Ratiometric changes were measured in 10-20 cells in each individual experiment. An average of the fluorescence of the cells in each image was calculated and plotted against time in seconds. […]

[2] = biological target: T2, MrgX3 (human MRGPRX3) (Homo sapiens, UniProt Q96LB0); experiment: as above; conditions: SP 10 μM (FIG. 9)
T2 construct: expressed in transfected cells; host or cells: HeLa cells, pcDNA3.1(-)
T2 sequence (Q96LB0 whole entry): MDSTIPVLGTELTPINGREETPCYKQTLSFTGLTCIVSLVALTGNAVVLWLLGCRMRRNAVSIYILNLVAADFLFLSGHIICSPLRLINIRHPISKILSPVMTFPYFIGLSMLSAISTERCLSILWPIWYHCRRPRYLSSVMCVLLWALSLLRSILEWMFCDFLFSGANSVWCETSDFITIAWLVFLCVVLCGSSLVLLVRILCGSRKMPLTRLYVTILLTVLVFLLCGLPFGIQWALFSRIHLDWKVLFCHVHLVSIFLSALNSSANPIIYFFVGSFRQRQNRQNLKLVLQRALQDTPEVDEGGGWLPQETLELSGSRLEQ
Description: as §1, §2, §3

[3] = biological target: T3, hMRGPRX2 (Homo sapiens, UniProt Q96LB1); experiment: Concentration-effect curves of substance P versus QWF, stable HEK-293 cell line; conditions: stable HEK-293 clone; experiment done once, triplicate points
T3 construct: expressed in transfected cells
T3 sequence (Q96LB1 1-330): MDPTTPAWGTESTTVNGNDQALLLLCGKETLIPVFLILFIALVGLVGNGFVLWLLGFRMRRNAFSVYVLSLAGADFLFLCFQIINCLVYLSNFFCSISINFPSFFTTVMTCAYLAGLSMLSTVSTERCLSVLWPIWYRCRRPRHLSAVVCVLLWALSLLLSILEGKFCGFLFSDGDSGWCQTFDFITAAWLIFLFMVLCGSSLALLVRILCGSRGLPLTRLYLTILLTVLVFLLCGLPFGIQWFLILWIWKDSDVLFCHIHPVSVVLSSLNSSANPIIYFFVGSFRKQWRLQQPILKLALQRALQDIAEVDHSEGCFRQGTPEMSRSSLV
From the text: Concentration-effect curves with substance P versus the indicated concentrations of QWF on a stable HEK-293 cell line expressing hMRGPRX2. HEK293 cells were transfected with a pcDNA3.1(−) vector containing MRGPRX2 cDNA and clones resistant to […] (G418) were selected. The data were generated from one of those clones. The experiment was done once with each data point done in triplicate. Error bars represent+/−SEM.

[4] = biological target: T4, MrgA3 (mouse MrgprA3) (Mus musculus, UniProt Q91WW3); experiment: Calcium imaging of cells transfected with the GPCR (Table 1); conditions: FIG. 7c: CQ 100 μM, QWF 100 μM
T4 construct: expressed in transfected cells; host or cells: HeLa cells, pcDNA3.1(-)
T4 sequence (Q91WW3 1-302): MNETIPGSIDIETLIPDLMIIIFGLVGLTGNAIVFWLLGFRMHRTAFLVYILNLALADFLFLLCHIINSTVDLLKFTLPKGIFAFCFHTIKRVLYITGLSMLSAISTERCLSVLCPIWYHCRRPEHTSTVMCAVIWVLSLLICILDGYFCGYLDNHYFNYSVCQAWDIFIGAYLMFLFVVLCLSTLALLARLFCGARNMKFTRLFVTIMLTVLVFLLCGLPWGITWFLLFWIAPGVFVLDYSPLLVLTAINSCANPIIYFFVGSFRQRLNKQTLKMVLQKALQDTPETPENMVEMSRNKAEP
Description: as §1
10 μg of expression vector (human MRGPRX2, mouse MrgprA1 or NK1) and 10 μl of LIPOFECTAMINE 2000 transfection reagent were diluted into 0.5 ml of DMEM and separately left at room temperature (RT) for 5 min. They were then mixed and incubated at RT for 20 minutes prior to being added to HeLa cells. HeLa cells were grown to confluence, trypsinized and 1×10^6 cells were pelleted in a 15 ml tube by centrifugation at 1000 rpm for 5 minutes. The DMEM-LIPOFECTAMINE 2000-DNA mixture (1 ml) was then added to the cell pellet, suspended and incubated at RT for 5 minutes. 2 ml of complete DMEM with 10% FBS without antibiotics were added to the tube, mixed by inverting the tube, plated into a 96-well glass bottom plate at 50,000 cells/well, and placed in a 37° C. CO2 incubator for 3 hours. HeLa cells transfected with salmon sperm DNA were plated as a control. The medium was changed after 3 hours and left in the incubator. 24 hours after transfection, the medium in the wells was removed and 100 μl of complete DMEM containing 2 μM of FURA-2 were added to each well and left at room temperature in the dark for 1 hr.
Calcium imaging was performed immediately after loading cells with Fura-2, using a ZEISS Axiovert 200M microscope platform equipped with a flipping filter wheel for ratiometric imaging. Axiovision software, version 4.6 was used for calcium image analysis of the cells excited at 340 nm and 380 nm. Agonists were added at 15 seconds after the start of the excitation procedure. Antagonists were added five minutes before imaging with the agonists. Images were taken every 5 seconds, including at zero time, during a 90 second period or longer if required. The software later analyzed all images taken during each excitation period. Ratiometric changes were measured in 10-20 cells in each individual experiment. An average of the fluorescence of the cells in each image was calculated and plotted against time in seconds.

activation of hMRGPRX4 by the substance (in words) [1] | activation of hMRGPRX3 by the substance (in words) [2] | mode of QWF antagonism of substance P at hMRGPRX2 [3] | Substance | inhibition of MrgprA3 activation by chloroquine (CQ) [4]
does not activate | does not activate | – | SP: inflammatory undecapeptide neuropeptide of the tachykinin family, synthesized by GenScript | –
– | – | competitive antagonist | Boc-Gln-D-Trp(Formyl)-Phe benzyl ester trifluoroacetate [QWF] | does not affect; also recorded: does not inhibit
